{"source": "patent US9395368B2", "about": "“Methods, agents and peptides for inducing an immune response to matrix metalloproteinase-2 expressing tumors” (New York University, priority 2010, dated 2016)", "molecules": {"B1": {"name": "active MMP-2: Purified human MMP-2 (mixture of the proenzyme (50%) and the active form (50%)) purchased from Biomol (protein, listed as Homo sapiens)", "chain": "MEALMARGALTGPLRALCLLGCLLSHAAAAPSPIIKFPGDVAPKTDKELAVQYLNTFYGCPKESCNLFVLKDTLKKMQKFFGLPQTGDLDQNTIETMRKPRCGNPDVANYNFFPRKPKWDKNQITYRIIGYTPDLDPETVDDAFARAFQVWSDVTPLRFSRIHDGEADIMINFGRWEHGDGYPFDGKDGLLAHAFAPGTGVGGDSHFDDDELWTLGEGQVVRVKYGNADGEYCKFPFLFNGKEYNSCTDTGRSDGFLWCSTTYNFEKDGKYGFCPHEALFTMGGNAEGQPCKFPFRFQGTSYDSCTTEGRTDGYRWCGTTEDYDRDKKYGFCPETAMSTVGGNSEGAPCVFPFTFLGNKYESCTSAGRSDGKMWCATTANYDDDRKWGFCPDQGYSLFLVAAHEFGHAMGLEHSQDPGALMAPIYTYTKNFRLSQDDIKGIQELYGASPDIDLGTGPTPTLGPVTPEICKQDIVFDGIAQIRGEIFFFKDRFIWRTVTPRDKPMGPLLVATFWPELPEKIDAVYEAPQEEKAVFFAGNEYWIYSASTLERGYPKPLTSLGLPPDVQRVDAAFNWSKNKKTYIFAGDKFWRYNEVKKKMDPGFPKLIADAWNAIPDNLDAVVDLQGGGHSYFFKGAYYLKLENQSLKSVKFGSIKSDWLGC"}}, "key": {"[1]": {"tested_on": "rhIFNAR1", "assay": "Overnight incubation of rhIFNAR1 with MMP-2 (Western blot)", "assay_type": "biochemical, human", "settings": "incubated overnight", "description": "(§1) Immature DCs were incubated with MMP-2 (0.5 μg/mL or 5 μg/mL) and poly(I:C)-matured 1 h later. IL-12 levels were measured 16 h later. (A) Results are represented as a percentage of IL-12p70 levels, measured by CBA, produced when DCs were incubated with poly(I:C) only (n=11). (B) For intracellular staining of IL-12p35 and IL-12p40 chains, Brefeldin A was added 4 h after poly(I:C) activation and cells were stained after an additional 12 h incubation. Numbers in the upper right quadrants are the percentages of each population for a representative donor (n=3). (C,D) Immature DCs were incubated with MMP-2 for 1 h (5 μg/mL) before poly(I:C) maturation. Intracellular staining of phosphorylated (Y701) STAT1 (P-STAT1) was performed 3 h later. A representative donor (C) and results for all 3 donors (D) are shown. […] (E) Immature DCs were incubated with MMP-2 and poly(I:C)-matured 1 h later. IFNβ levels were measured by ELISA 16 h later. Results are represented as a percentage of IFNβ levels produced when DCs were incubated with poly(I:C) only (n=9). (F,G) 10^6DCs/lane were treated with 0.1 μg MMP-2 or controls. Poly(I:C) was added 1 h later. IFNAR1 protein expression was detected the next day by Western blot analysis using a rabbit monoclonal antibody. […]\nWestern blots IFNAR1 and β-actin were detected by Western blot analysis using rabbit and mouse mAbs, respectively. […]"}, "[2]": {"tested_on": "IL-12p70 production by DCs", "assay": "IL-12p70 production by poly(I:C)-matured DCs (CBA)", "assay_type": "cell-based, human", "description": "as §1, with “antibody. A representative donor (F) and results for all 7 donors (G) are shown. (H) The rhIFNAR1 (5 μg; ≈110 kD) was incubated overnight with 0.3 μg MMP-2 before performing Western blot analysis for IFNAR1. The second band (around 90 kD) and the third band (25 kD) very likely correspond to either a degraded form of the protein still recognized by the antibody or a contaminant present in the commercial protein preparation and non-specifically recognized by the antibody. MMP-2 enzymatic activity was controlled (FIG. 13C-D).” for “antibody.”\nDendritic cell preparation and activation. […] Immature DCs were harvested on day 5 and matured using poly(I:C) at 5 μg/mL/10^6 DCs (Amersham) Secretion of IL-12p70, TNFα, IL-1β, IL-6, IL-8 and IL-10 was assessed on both immature and mature DCs using the Human Inflammatory Cytokine Cytometric Bead Array (BD Pharmingen)."}}}
{"molecule": "B1", "values": [{"measurement": "degradation of rhIFNAR1 (≈110 kD)", "setting": "[1]", "result": "degraded"}, {"measurement": "IL-12p70, mean of differences", "setting": "[2]; 5 μg/mL MMP-2, n=11 donors", "result": 41.7}, {"measurement": "IL-12p70 mean inhibition", "setting": "[2]; 5 μg/mL MMP-2, poly(I:C) stimulation, n=11 donors", "result": 47.8, "unit": "%"}]}
